Experimental findings from US20220273751A1 (GPCR THERAPEUTICS, published 2022) are described below.

The assay deals with ADRB2 (Adrenoceptor Beta 2) (human, UniProt P07550 1-413). Nature of the assay: cell-based or functional assay.

B1: CXCR4 (C-X-C Motif Chemokine Receptor 4) (receptor, human, UniProt P61073 1-352, looked up)
chain: MEGISIYTSDNYTEEMGSGDYDSMKEPCFREENANFNKIFLPTIYSIIFLTGIVGNGLVILVMGYQKKLRSMTDKYRLHLSVADLLFVITLPFWAVDAVANWYFGNFLCKAVHVIYTVNLYSSVLILAFISLDRYLAIVHATNSQRPRKLLAEKVVYVGVWIPALLLTIPDFIFANVSEADDRYICDRFYPNDLWVVVFQFQHIMVGLILPGIVILSCYCIIISKLSHSKGHQKRKALKTTVILILAFFACWLPYYIGISIDSFILLEIIKQGCEFENTVHKWISITEALAFFHCCLNPILYAFLGAKFKTSAQHALTSVSRGSSLKILSKGKRGGHSSVSTESESSSFHSS
Turning to B1, the “calcium response on co-stimulation with CXCL12 (200 nM) and formoterol (10 uM) relative to CXCL12 alone, HL-60 cells” value is about 8 fold; the “calcium response on co-stimulation with CXCL12 (200 nM) and formoterol (10 uM) relative to CXCL12 alone, U937 cells” value was about 4 fold.
